Changes are numbered by the printed parent chain. Numbers in names are those of the source. Values belong to the binder of their own block, whether it stands above or below them.
Key:
[1] = molecular target: T1, human CD36 (on HEK 293 or SCC25 cells) (human, UniProt P16671 2-472); assay: cell-based or functional assay
[2] = molecular target: T1, human CD36 (on HEK 293 or SCC25 cells); assay: cell-based or functional assay; remark: listed apart in the source
[3] = molecular target: T1, human CD36 (on HEK 293 or SCC25 cells); assay: cell-based or functional assay; remark: listed apart in the source
[4] = molecular target: T1, human CD36 (on HEK 293 or SCC25 cells); assay: FACS, SCC25 cells stably expressing human CD36
Method: SCC25 cells were treated with 10-fold serial dilution of each antibody (5 dilutions starting at 100 nM). After incubation with the cells, an anti-human fluorescently labelled antibody was added to the cell media, allowed to incubate further, and the unbound antibody was washed off of the cells. Subsequently, the cells were subjected to FACS analysis to determine antibody binding to the cells. The results were fitted to a sigmoidal titration curve. Using a nonlinear regression model, the EC₅₀ values for each antibody were calculated from the GeoMFI and MFI values using the log(agonist) versus response (four parameters) fitting on the data transformed according to X=Log[X] in GraphPad PRISM.

[5] = molecular target: T1, human CD36 (on HEK 293 or SCC25 cells); assay: FACS, SCC25 cells stably overexpressing human CD36
[6] = molecular target: T1, human CD36 (on HEK 293 or SCC25 cells); assay: FACS, HEK 293 cells transiently overexpressing CD36;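 note: antibody binding to transfected cells detected by flow cytometry with a fluorescent anti-human secondary antibody, EC50 from a four-parameter sigmoidal fit of mean fluorescence intensity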
Method: (§1) After transiently transfecting the HEK 293 cells with a CD36 expression construct, cells were treated with three-fold serial dilution of each candidate antibody (10 dilutions starting at 500 nM). […] After incubation with the cells, an anti-human fluorescently labelled antibody was added to the cell media, allowed to incubate further, and the unbound antibody was washed off of the cells. Subsequently, the cells were subjected to FACS analysis to determine antibody binding to the cells. The results were fitted to a sigmoidal titration curve. Using a nonlinear regression model, the EC₅₀ values for each antibody were calculated from the GeoMFI and MFI values using the log(agonist) versus response (four parameters) fitting on the data transformed according to X=Log[X] in GraphPad PRISM.

[7] = molecular target: T2, nonhuman primate CD36 (on HEK 293 cells) (cynomolgus monkey / rhesus macaque, UniProt P16671 2-472 (human entry)); assay: as above
T2 construct: also called non-human primate CD36 (cynomolgus)
Method: as §1

[8] = molecular target: T3, mouse CD36 (on HEK 293 cells) (mouse, UniProt Q08857 1-472); assay: as above
T3 construct: also called Murine CD36
Method: as §1

human CD36 (His-tagged) = molecular target: T4, human CD36 (His-tagged) (human, UniProt P16671 30-439); assay: SPR (Biacore T200), His-captured CD36, bivalent analyte model
T4 construct: not shown: His tag

human FcRn = human FcRn (human, UniProt P55899 24-297; P61769 21-119); assay: SPR at pH 5.8, antibody immobilized through its light chains, soluble human FcRn
Method: (§2) The binding of the different Fc-formatted anti-CD36 antibodies to FcγRs and FcRn was measured by SPR by immobilizing the antibodies through their light chains. The setup for these assays orients the antibody such that the Fc domain is solvent-exposed, allowing quantification of the interaction with soluble receptor proteins. Antibodies with well-defined binding properties were included as positive/negative controls in all the assays.

[9] = molecular target: T5, human CD36 (Sino Biological) (human, UniProt P16671 30-439); assay: ELISA, plates coated with human CD36 (Sino Biological), antibody titrated, OD630nm
T5 construct: Bought protein coated on ELISA plates
From the text: Binding was first tested using an ELISA assay in which 96-well ELISA plates were coated with human CD36 (Sino Biological) or mouse CD36 protein.

C1q human protein = molecular target: T6, C1q human protein (human, UniProt P02745 23-245; P02746 28-253; P02747 29-245); assay: ELISA, plates coated with the antibody, C1q human protein titrated, Mean Absorbance (OD Units)
T6 construct: also called complement C1q protein
Method: Binding to complement C1q protein was also measured, using a standard ELISA assay in which 96-well ELISA plates were coated with the tested antibodies and C1q human protein was added (2.5-fold serial dilution starting at 250 g/mL).

Human FcγRIIb = molecular target: T7, Human FcγRIIb (human, UniProt P31994); assay: SPR, antibody immobilized through its light chains, soluble receptor injected; Mean Relative Response (RU)
T7 construct: soluble receptor protein; bar 7 of each group
T7 sequence (receptor, looked up): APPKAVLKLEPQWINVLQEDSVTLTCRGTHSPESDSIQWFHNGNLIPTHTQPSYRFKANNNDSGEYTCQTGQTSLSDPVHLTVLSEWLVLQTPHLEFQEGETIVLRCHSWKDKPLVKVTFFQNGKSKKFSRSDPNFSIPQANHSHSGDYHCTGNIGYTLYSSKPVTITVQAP
Method: as §2

Cyno FcγRIIa = molecular target: T8, Cyno FcγRIIa (Macaca fascicularis, UniProt A0A140HDN0); assay: as above
T8 construct: soluble receptor protein; bar 8 of each group
T8 sequence (receptor): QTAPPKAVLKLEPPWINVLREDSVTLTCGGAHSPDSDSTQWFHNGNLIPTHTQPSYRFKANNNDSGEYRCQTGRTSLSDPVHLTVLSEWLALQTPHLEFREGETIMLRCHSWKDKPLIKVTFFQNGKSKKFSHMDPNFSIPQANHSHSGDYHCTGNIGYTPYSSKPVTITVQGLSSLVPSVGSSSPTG
Method: as §2

Human FcγRI = molecular target: T9, Human FcγRI (human, UniProt P12314); assay: as above
T9 construct: soluble receptor protein; bar 10 of each group
Method: as §2

Human FcγRIIIa (158F) = molecular target: T10, Human FcγRIIIa (158F) (human, UniProt P08637); assay: as above
T10 construct: soluble receptor protein; bar 1 of each group
Method: as §2

Human FcγRIIIa (158V) = molecular target: T11, Human FcγRIIIa (158V) (human, UniProt P08637); assay: as above
T11 construct: soluble receptor protein; bar 2 of each group
Method: as §2

Human FcγRIIIb = molecular target: T12, Human FcγRIIIb (human, UniProt O75015); assay: as above
T12 construct: soluble receptor protein; bar 3 of each group
Method: as §2

Cyno FcγRIII = molecular target: T13, Cyno FcγRIII (cynomolgus monkey, UniProt Q8SPW2); assay: as above
T13 construct: soluble receptor protein; bar 4 of each group
Method: as §2

Human FcγRIIa (131H) = molecular target: T14, Human FcγRIIa (131H) (human, UniProt P12318); assay: as above
T14 construct: soluble receptor protein; bar 5 of each group
T14 sequence (receptor, looked up): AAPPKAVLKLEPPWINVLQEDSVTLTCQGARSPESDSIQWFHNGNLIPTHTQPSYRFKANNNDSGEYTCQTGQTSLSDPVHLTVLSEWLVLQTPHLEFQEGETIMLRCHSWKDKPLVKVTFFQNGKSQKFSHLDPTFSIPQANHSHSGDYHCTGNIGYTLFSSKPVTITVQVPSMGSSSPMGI
Method: as §2

Human FcγRIIa (131R) = molecular target: T15, Human FcγRIIa (131R) (human, UniProt P12318); assay: as above
T15 construct: soluble receptor protein; bar 6 of each group
T15 sequence (receptor, looked up): T14 sequence (receptor, looked up) with H132R
Method: as §2

Cyno FcγRIIb = molecular target: T16, Cyno FcγRIIb (Macaca fascicularis, UniProt A0A140HDP4); assay: as above
T16 construct: soluble receptor protein; bar 9 of each group
T16 sequence (receptor): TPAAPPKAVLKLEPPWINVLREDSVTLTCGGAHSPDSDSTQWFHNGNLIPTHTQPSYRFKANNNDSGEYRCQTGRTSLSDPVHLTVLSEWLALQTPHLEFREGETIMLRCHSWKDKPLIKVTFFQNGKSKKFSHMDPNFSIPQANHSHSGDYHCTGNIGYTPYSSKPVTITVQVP
Method: as §2

[10] = molecular target: T1, human CD36 (on HEK 293 or SCC25 cells); assay: FACS, HEK 293 cells
[11] = molecular target: T2, nonhuman primate CD36 (on HEK 293 cells); assay: FACS, HEK 293 cells transiently overexpressing CD36; remark: listed apart in the source;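 for EC50: antibody binding to transfected cells detected by flow cytometry with a fluorescent anti-human secondary antibody, EC50 from a four-parameter sigmoidal fit of mean fluorescence intensity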
Method: as §1

[12] = molecular target: T17, purified biotin-tagged human CD36 (human, UniProt P16671 30-439, limits assumed, biotin tag, site not stated); assay: AlphaScreen competition; competitor 1G04 on acceptor beads;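 note: streptavidin donor beads excited at 680 nm release singlet oxygen, and the light signal needs a nearby acceptor bead, with 30 min donor-bead incubation at 25 °C in the dark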
[13] = molecular target: T17, purified biotin-tagged human CD36; assay: AlphaScreen competition; competitor FA6-152 on acceptor beads
Method: This was done using the AlphaScreen® bead-based microplate assay. […] AlphaLISA® Streptavidin Donor Beads were then added and the mix incubated for 30 min at 25° C. in the dark. The donor bead contains a photosensitizer, which upon excitation by light at 680 nm, converts oxygen (O₂) into an excited form, singlet oxygen. Singlet oxygen molecules have a reduced lifetime (4 microseconds half-life) and can diffuse approximately 200 nm in solution before falling back to ground state. In the absence of acceptor beads, the singlet oxygen molecules fall back to ground state without producing any light signal.
Throughout, for Percent Fatty Acid Uptake Inhibition: test concentration or dose not given here.

T3 sequence (Q08857 whole entry): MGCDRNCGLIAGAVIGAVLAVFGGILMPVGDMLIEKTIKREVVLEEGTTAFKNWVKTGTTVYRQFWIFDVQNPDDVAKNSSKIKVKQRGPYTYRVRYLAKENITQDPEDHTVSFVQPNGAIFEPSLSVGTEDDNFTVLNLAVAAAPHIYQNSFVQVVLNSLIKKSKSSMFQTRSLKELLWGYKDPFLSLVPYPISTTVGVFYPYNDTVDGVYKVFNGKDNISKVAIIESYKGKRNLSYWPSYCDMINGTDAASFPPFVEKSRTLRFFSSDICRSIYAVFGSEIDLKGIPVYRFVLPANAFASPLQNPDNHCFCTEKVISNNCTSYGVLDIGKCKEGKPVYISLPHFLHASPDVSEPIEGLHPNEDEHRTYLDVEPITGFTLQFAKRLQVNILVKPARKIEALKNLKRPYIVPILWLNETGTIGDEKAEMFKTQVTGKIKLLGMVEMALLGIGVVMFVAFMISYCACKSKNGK
T1 sequence (P16671 2-472 limits assumed): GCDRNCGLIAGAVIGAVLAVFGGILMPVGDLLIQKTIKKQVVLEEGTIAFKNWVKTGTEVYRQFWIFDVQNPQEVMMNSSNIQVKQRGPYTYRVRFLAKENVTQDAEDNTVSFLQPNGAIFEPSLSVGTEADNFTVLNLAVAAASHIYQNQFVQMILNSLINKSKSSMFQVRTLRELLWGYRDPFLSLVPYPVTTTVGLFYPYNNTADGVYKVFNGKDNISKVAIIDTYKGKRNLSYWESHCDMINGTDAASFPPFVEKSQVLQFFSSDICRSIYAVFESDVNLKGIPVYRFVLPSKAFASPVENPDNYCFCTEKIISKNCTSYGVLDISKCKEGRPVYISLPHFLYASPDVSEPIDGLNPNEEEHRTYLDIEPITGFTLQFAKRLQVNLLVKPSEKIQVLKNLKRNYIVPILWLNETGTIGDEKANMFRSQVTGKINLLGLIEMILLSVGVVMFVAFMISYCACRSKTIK
T4 sequence (P16671 30-439 limits assumed): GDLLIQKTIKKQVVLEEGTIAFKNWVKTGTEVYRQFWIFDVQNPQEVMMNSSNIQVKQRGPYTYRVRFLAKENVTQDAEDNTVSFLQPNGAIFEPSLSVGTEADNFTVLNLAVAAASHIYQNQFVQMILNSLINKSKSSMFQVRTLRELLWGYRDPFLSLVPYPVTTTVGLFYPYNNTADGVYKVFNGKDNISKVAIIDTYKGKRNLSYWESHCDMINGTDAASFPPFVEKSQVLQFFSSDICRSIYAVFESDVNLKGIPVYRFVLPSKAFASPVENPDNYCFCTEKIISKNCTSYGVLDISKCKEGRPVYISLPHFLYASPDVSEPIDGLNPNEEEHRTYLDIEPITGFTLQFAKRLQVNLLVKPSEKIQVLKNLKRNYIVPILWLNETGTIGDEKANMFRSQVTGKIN
T17 sequence (P16671 30-439 limits assumed): as above
T2 sequence (P16671 other isoform, or with tags, fused parts or gaps limits assumed): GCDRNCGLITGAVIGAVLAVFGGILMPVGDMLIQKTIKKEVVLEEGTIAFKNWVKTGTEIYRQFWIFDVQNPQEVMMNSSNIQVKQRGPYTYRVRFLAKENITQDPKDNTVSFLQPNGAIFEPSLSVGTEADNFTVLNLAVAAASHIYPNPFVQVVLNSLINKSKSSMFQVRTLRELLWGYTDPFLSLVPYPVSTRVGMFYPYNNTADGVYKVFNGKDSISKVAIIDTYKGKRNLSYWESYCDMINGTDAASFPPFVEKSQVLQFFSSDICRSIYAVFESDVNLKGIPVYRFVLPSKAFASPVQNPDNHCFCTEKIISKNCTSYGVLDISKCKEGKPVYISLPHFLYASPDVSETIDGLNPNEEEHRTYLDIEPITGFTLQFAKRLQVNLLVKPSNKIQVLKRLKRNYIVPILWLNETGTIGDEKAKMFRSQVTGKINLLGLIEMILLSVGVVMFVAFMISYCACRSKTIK
T12 sequence (O75015 17-200 limits assumed): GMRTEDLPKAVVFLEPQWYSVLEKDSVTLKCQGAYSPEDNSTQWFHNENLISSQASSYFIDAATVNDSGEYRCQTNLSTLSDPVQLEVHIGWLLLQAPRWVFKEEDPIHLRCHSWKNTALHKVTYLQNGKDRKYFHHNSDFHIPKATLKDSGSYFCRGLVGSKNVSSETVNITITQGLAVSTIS
T11 sequence (P08637 17-208 F176V limits assumed): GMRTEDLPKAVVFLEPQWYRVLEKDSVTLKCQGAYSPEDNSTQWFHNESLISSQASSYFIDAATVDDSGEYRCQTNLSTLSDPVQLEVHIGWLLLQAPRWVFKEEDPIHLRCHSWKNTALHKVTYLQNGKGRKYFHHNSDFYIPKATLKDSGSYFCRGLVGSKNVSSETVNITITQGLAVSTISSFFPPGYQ
T9 sequence (P12314 16-288 limits assumed): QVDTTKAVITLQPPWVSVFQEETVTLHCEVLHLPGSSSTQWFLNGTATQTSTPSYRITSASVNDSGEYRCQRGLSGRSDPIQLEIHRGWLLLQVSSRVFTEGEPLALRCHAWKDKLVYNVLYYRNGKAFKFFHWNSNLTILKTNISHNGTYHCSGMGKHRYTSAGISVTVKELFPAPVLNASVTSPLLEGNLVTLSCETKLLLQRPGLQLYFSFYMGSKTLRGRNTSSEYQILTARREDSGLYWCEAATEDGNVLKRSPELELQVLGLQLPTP
T6 sequence (P02745 23-245 limits assumed, chain 1 of 3): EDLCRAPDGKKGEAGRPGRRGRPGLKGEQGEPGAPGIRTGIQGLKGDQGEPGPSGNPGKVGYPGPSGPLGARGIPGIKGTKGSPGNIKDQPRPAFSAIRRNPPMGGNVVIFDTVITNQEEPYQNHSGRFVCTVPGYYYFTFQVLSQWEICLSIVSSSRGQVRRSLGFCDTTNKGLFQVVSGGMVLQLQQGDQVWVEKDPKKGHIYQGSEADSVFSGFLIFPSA
T6 sequence (P02746 28-253 limits assumed, chain 2 of 3): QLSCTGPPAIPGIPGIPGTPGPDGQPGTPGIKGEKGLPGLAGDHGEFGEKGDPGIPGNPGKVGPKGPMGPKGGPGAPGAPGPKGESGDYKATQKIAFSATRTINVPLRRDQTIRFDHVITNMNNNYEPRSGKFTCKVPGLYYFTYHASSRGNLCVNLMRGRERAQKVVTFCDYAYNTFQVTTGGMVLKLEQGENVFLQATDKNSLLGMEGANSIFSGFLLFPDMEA
T6 sequence (P02747 29-245 limits assumed, chain 3 of 3): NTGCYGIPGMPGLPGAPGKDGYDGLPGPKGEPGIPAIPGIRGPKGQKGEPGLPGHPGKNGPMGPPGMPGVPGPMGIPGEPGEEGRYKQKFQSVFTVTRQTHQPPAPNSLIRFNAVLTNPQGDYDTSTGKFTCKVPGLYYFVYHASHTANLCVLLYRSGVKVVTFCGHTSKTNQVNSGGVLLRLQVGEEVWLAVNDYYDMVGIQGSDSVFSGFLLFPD
T5 sequence (P16671 30-439 limits assumed): as the sequence (P16671 30-439 limits assumed) above
T10 sequence (P08637 17-208 limits assumed): as the sequence (P08637 17-208 F176V limits assumed) above, with V160F counted along it
T13 sequence (Q8SPW2 17-208 limits assumed): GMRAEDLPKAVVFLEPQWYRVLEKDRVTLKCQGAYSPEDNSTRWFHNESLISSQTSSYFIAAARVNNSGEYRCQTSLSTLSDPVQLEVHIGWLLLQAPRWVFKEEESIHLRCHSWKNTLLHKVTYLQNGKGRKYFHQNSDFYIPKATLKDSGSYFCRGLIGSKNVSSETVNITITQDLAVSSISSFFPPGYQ

- Percent Fatty Acid Uptake Inhibition [1]: 30.5%
- IC50 of fatty acid uptake inhibition (BODIPY FL C16, HEK hCD36 cells) [2]: 1 nM
- IC50 of oxLDL uptake inhibition (DiI-oxLDL, SCC25 cells) [3]: 0.36 nM
- EC50 [4]: 0.42 nM
- EC50 [5]: 0.34 nM
- EC50 [6]: 2.07 nM
- EC50 [7]: 1.23 nM
- EC50 [8]: 1.99 nM
- Kd (human CD36 (His-tagged)): 3.2 nM
- koff (human CD36 (His-tagged)): 0.0094 s⁻¹
- kon (human CD36 (His-tagged)): 2.9e+06 M⁻¹ s⁻¹
- Kd (human FcRn): 676 nM
- EC50 (read off the curve) [9]: ~0.1 nM
- binding result (Human FcγRIIb): binds
- binding result (Cyno FcγRIIa): no binding
- binding result (Human FcγRI): binds
- binding result (Human FcγRIIIa (158F)): binds
- binding result (Human FcγRIIIa (158V)): binds
- binding result (Human FcγRIIIb): binds
- binding result (Cyno FcγRIII): binds
- binding result (Human FcγRIIa (131H)): binds
- binding result (Human FcγRIIa (131R)): binds
B1: 1G04 (antibody, human IgG1, kappa, L234A L235A)
heavy: not shown
light: SIVMTQTPKFLLVSAGDRITITCKASQSVSDDVAWYQQKPGQSPKLLIYYASNRYTGVPDRFTGSGYGTDFTFTISTVQAEDLAVYFCQQDYSSPLTFGAGTKLEIKRTVAAPSVFIFPPSDEQLKSGTASVVCLLNNFYPREAKVQWKVDNALQSGNSQESVTEQDSKDSTYSLSSTLTLSKADYEKHKVYACEVTHQGLSSPVTKSFNRGEC
notes: Chimeric human IgG1 with L234A/L235A (LALA); variable region of ONA-0-v1; also called 01G04; 001G04; copies: 2 + 2
- binding result (C1q human protein): no binding (tested: 250 µg/mL C1q (highest point))

- EC50 [4]: 0.38 nM
- Kd (human FcRn): 629 nM
- EC50 (read off the curve) [9]: ~0.1 nM
- binding result (Human FcγRIIb): no binding
- binding result (Cyno FcγRIIa): no binding
- binding result (Cyno FcγRIIb): no binding
- binding result (Human FcγRI): no binding
- binding result (Human FcγRIIIa (158F)): binds
- binding result (Human FcγRIIIa (158V)): binds
- binding result (Human FcγRIIIb): binds
- binding result (Cyno FcγRIII): no binding
- binding result (Human FcγRIIa (131H)): no binding
- binding result (Human FcγRIIa (131R)): no binding
B2: 1G06 (antibody, human IgG1, kappa)
heavy: QVQLKQSGADLVRPGASVKLSCKASGYTFTDYYINWVKQRPGQGLEWIARIYPGSGNTYYNEKFKGKATLTAEKSSSTAYMQLSSLTSEDSAVYFCARGIGGGFGMDYWGQGTSVTVSSASTKGPSVFPLAPSSKSTSGGTAALGCLVKDYFPEPVTVSWNSGALTSGVHTFPAVLQSSGLYSLSSVVTVPSSSLGTQTYICNVNHKPSNTKVDKKVEPKSCDKTHTCPPCPAPESTRGPSVFLFPPKPKDTLMISRTPEVTCVVVDVSHEDPEVKFNWYVDGVEVHNAKTKPREEQYNSTYRVVSVLTVLHQDWLNGKEYKCKVSNKALPAPIEKTISKAKGQPREPQVYTLPPSRDELTKNQVSLTCLVKGFYPSDIAVEWESNGQPENNYKTTPPVLDSDGSFFLYSKLTVDKSRWQQGNVFSCSVMHEALHNHYTQKSLSLSPGK
light: B1 light
notes: Variable regions of 1G04 on human IgG1 with L234S, L235T, G236R (STR); also called STR; copies: 2 + 2
- binding result (C1q human protein): no binding (tested: 250 µg/mL C1q (highest point))

- binding result [10]: binds
- EC50 [7]: 5.03 nM
- EC50 [8]: 18.2 nM
B3: 20G04 (antibody, human IgG1, V domains shown)
VH: QIQLVQSGPELVKPGASVKISCETSGHTFTEYTMHWVKQSHGKSLEWIGGIYPNNGATKYNQKFKGKATLTVDKSSSTAYMELRSLTSEDSAVYYCARDRYDVWFAYWGQGTLVTVSA
VL: ETTVTQSPASLSVATGEKVTIRCITSTDIDDDMNWYQQKPGEPPKLLISEGNTLRPGVPSRFSSGGYGTDFVFTVENMLSEDVADYYCLQSDNLPLTFGAGTKLELK
notes: Chimeric: mouse variable regions on human IgG1 LALA (L234A/L235A)

- EC50 [6]: 0.72 nM
- EC50 [8]: 158 nM
- EC50 [12]: 0.46 nM
- EC50 [13]: 2.66 nM
B4: 26G04 (antibody, human IgG1, V domains shown)
VH: QVQMKESGAELMKPGASVKISCKATGYIFSNYWIEWLKERPGHGLEWIGDFLPGSSSANYNEKFKGKATFTADTSSNTAYMQLSSLTSEDSAVYYCVPFTVEVTDAMDYWGQGTSVTVSS
VL: DIVLTQSHKFMSTSVGDRVSITCKASQDVSTAVAWYQQKPGQSPKLLIYSASYRYTGVPDRFTGSGSGTDFTFTISSVQAEDLAVYYCQQHYSTPRTFGGGTKLEIK
notes: as for B3
- binding result [11]: no binding (tested: 500 nM top concentration)

- EC50 [12]: 0.27 nM
- EC50 [13]: 2.5 nM
B5: 31G04 (antibody, human IgG1, V domains shown)
VH: QVQLQQSGSELRSPGSSVKLSCKDFDSEVFPIAYMSWVRQKPGHGFEWIGDILPSIGSTIYGEKFEDKATLDADTVSNTAYLELNSLTSEDSAIYYCARDYYGSSYGYFDVWGAGTTVTVPS
VL: DIVLTQSPASLAVSLGQRATISCRASESVDSYGNSFMHWYQQKPGQPPKLLIYRASNLESGIPARFSGSGSRTDFTLTINPVEADDVATYYCQQSNEDPYTFGGGTKLEIK
notes: as for B3
- binding result [11]: no binding (tested: 500 nM top concentration)

Reference: patent publication US20250206836A1 (ONA THERAPEUTICS S L, published 2025)
